Holding throughout (assay): SPR
In general terms: In SPR one partner is held on a chip, and binding of the other changes the refractive index at the surface.

For assay [1], the target named is T1, recombinant human IL-5 (human, UniProt P05113 20-134).
The target of assay [2] is T1, recombinant human IL-5. This is another data set of the same source.
Assay [3] deals with T1, recombinant human IL-5. This is another data set of the same source.
Assay [4] addresses T1, recombinant human IL-5. This is another data set of the same source.
The target in assay [5] is T1, recombinant human IL-5. This is another data set of the same source.
For assay [6], the target named is T1, recombinant human IL-5. The source holds these as a separate data set.
The target in assay [7] is T1, recombinant human IL-5. This is another data set of the same source.
The target of assay [8] is T1, recombinant human IL-5. The source holds these as a separate data set.
The target in assay [9] is T1, recombinant human IL-5. The source holds these as a separate data set.

Among the data in US20180186873A1 (CEPHALON, published 2018) are Kd, koff and kon values, retold here.

Where two headings read alike, the source gives them in different places.

B1: 3A5.040 (antibody, human IgG4 S228P, lambda)
heavy: not shown
light: SYVLTQPPSVSVAPGQTARITCGGNNIGSKNVYWYQQKPGQAPVLVVHDDSDRPSGIPERFSGSNSGNTATLTISRVEVGDEADYSCQVWDSSSDHVVFGGGTKLTVLGQPKAAPSVTLFPPSSEELQANKATLVCLISDFYPGAVTVAWKADSSPVKAGVETTTPSKQSNNKYAASSYLSLTPEQWKSHRSYSCQVTHEGSTVEKTVAPTECS
The term Kd denotes a measure of binding affinity in units of concentration. For orientation: koff means the rate constant with which the complex falls apart. In general, kon refers to the second-order rate constant of association. As to B1, the Kd stood at 0.173 nM with recombinant human IL-5 [1]; 0.168 nM in the assay with recombinant human IL-5 [2]; 0.15 nM with recombinant human IL-5 [3]; 0.2 nM with recombinant human IL-5 [4]; 0.174 nM with recombinant human IL-5 [5]; 0.168 nM in the assay with recombinant human IL-5 [6]. Moreover, the Kd in the assay with recombinant human IL-5 [7] stood at 0.193 nM; in the assay with recombinant human IL-5 [8], 0.16 nM. For the same molecule, the koff with recombinant human IL-5 [1] turned out to be 0.000243 s⁻¹; with recombinant human IL-5 [2], 0.00023 s⁻¹; with recombinant human IL-5 [3] it was 0.000215 s⁻¹; with recombinant human IL-5 [4] it was 0.000284 s⁻¹; with recombinant human IL-5 [5], 0.000252 s⁻¹; with recombinant human IL-5 [6], 0.000239 s⁻¹. Further, the off-rate (koff) came out at 0.000285 s⁻¹ with recombinant human IL-5 [7] and 0.000232 s⁻¹ with recombinant human IL-5 [8]. In addition, the kon turned out to be 1.41e+06 M⁻¹ s⁻¹ with recombinant human IL-5 [1]; 1.37e+06 M⁻¹ s⁻¹ with recombinant human IL-5 [2]; 1.43e+06 M⁻¹ s⁻¹ in the assay with recombinant human IL-5 [3]; 1.42e+06 M⁻¹ s⁻¹ with recombinant human IL-5 [4]; 1.45e+06 M⁻¹ s⁻¹ in the assay with recombinant human IL-5 [5]; 1.48e+06 M⁻¹ s⁻¹ with recombinant human IL-5 [7]. In addition, the on-rate (kon) with recombinant human IL-5 [8] amounted to 1.45e+06 M⁻¹ s⁻¹; with recombinant human IL-5 [9], 1.43e+06 M⁻¹ s⁻¹.
